Assay results from article PMC10626271 (FEBS Open Bio, 2023).

Key:
[1] = target: the molecule itself; assay: SEC; Superdex 75 increase 10/300 of Ni-NTA purified Trx-ICH_(GLUT4)
[2] = target: T1, C-terminal domain of ASPL (ASPL-C, residues 313-553) (human, UniProt Q9BZE9 313-553); assay: SPR; ASPL-C immobilised on CM5 chip by amine coupling (1000 RU); analytes 0.6 to 83 μM in 10 mM HEPES, 150 mM NaCl, 0.005% Tween20, pH 7.4; BIAcore 3000, duplicates; one-site specific binding fit of the response against concentration; no saturation reached; conditions: both partners purified
T1 construct: the 26 kDa printed for ASPL-C in the cross-linking experiment fits the chain without GST; The cited crystal structure covers residues 317-499; source: E. coli BL21 DE3 Rosetta2, purified (glutathione-Sepharose 4B, Superdex 75 SEC)
T1 sequence (looked up): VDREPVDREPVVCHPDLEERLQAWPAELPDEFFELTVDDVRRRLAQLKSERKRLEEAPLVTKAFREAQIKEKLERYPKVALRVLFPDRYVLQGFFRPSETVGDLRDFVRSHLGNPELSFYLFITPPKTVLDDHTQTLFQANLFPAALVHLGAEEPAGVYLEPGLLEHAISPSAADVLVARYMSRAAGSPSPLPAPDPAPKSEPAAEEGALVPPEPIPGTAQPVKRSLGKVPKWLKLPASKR

Kd [2]: 68 µM
B1: Thioredoxin fused C-terminally with human GLUT4 intracellular helical bundle (residues 225-271, I232C/K264C) (domain or fragment, UniProt P14672 225-271, looked up)
chain: ESPRYLYCIQNLEGPARKSLKRLTGWADVSGVLAELKDECRKLERER
notes: human GLUT4 intracellular helical bundle (ICH) between TM6 and TM7, residues 225-271, with I232C and K264C to form a stabilising disulphide bond; Synthetic gene (GenScript) in pET24a; 18 kDa monomer; a 36 kDa peak was also seen on SEC; also called Trx-ICH_(GLUT4); ICH_(GLUT4); source: E. coli TUNER (DE3), purified (Ni-NTA, Superdex 75 SEC; monomer peak used); not shown: Trx (thioredoxin), …
stoichiometry N [1]: 2
